# Results from the supplement of paper PMC9112550, “Optimization of the antimicrobial peptide Bac7 by deep mutational scanning” (BMC Biology, 2022).
# System: Escherichia coli TOP10
# Assay: shrunken log2 fold change of peptide-encoding DNA abundance (4.5 h post-induction vs induction); higher = less antimicrobial activity (less host growth inhibition)
# Settings: time post-induction: 4.5 h; library: site-saturation at positions 5, 18, 19, 20
# 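Note: peptides expressed intracellularly from a pBAD plasmid library in pooled LB shake-flask culture, induced with 0.3% L-arabinose, DNA abundance read by NGS, three biological replicates, DESeq2 with apeglm shrinkage.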
row,Sequence,shrunken log2 fold change
1,RRIRCRPPRLPRPRPRPAPFPRP,0.0214
2,RRIRSRPPRLPRPRPRPAYFPRP,-0.297
3,RRIRARPPRLPRPRPRPCMWPRP,0.117
4,RRIRPRPPRLPRPRPRPLSWPRP,0.238
5,RRIRCRPPRLPRPRPRPFMDPRP,-0.361
6,RRIRIRPPRLPRPRPRPMKKPRP,0.0138
7,RRIRARPPRLPRPRPRPYMHPRP,-0.361
8,RRIRTRPPRLPRPRPRPGKRPRP,0.0687
9,RRIRCRPPRLPRPRPRPGVEPRP,0.0401
10,RRIRERPPRLPRPRPRPNLLPRP,0.107
11,RRIRRRPPRLPRPRPRPVHIPRP,-0.0107
12,RRIRHRPPRLPRPRPRPRDRPRP,0.0898
13,RRIRIRPPRLPRPRPRPQNGPRP,-0.294
14,RRIRQRPPRLPRPRPRPLPYPRP,-0.202
15,RRIRNRPPRLPRPRPRPMCGPRP,-0.301
16,RRIRFRPPRLPRPRPRPWVFPRP,-0.00336
17,RRIRTRPPRLPRPRPRPEEDPRP,-0.00174
18,RRIRPRPPRLPRPRPRPTWTPRP,0.071
19,RRIRMRPPRLPRPRPRPEFLPRP,0.113
20,RRIRVRPPRLPRPRPRPYKHPRP,-0.81

row,Sequence,shrunken log2 fold change
1,RRIRCRPPRLPRPRPRPIYPPRP,-0.386
2,RRIRWRPPRLPRPRPRPHLMPRP,-0.0519
3,RRIRMRPPRLPRPRPRPDSWPRP,1.59
4,RRIRGRPPRLPRPRPRPGCGPRP,1.31
5,RRIRPRPPRLPRPRPRPCMEPRP,-0.106
6,RRIRDRPPRLPRPRPRPGPEPRP,0.544
7,RRIRPRPPRLPRPRPRPVDRPRP,0.115
8,RRIRCRPPRLPRPRPRPPWLPRP,0.241
9,RRIRGRPPRLPRPRPRPSTEPRP,1.14
10,RRIRKRPPRLPRPRPRPWSRPRP,-0.0012
11,RRIRVRPPRLPRPRPRPEHWPRP,0.28
12,RRIRHRPPRLPRPRPRPNTAPRP,-0.246
13,RRIRFRPPRLPRPRPRPEEKPRP,-0.0254
14,RRIRTRPPRLPRPRPRPHQWPRP,-0.196
15,RRIRRRPPRLPRPRPRPSIQPRP,-0.0217
16,RRIRNRPPRLPRPRPRPTCMPRP,0.0558
17,RRIRGRPPRLPRPRPRPPCCPRP,0.478
18,RRIRYRPPRLPRPRPRPTLIPRP,-0.743
19,RRIRDRPPRLPRPRPRPSYLPRP,-0.233
20,RRIRIRPPRLPRPRPRPYPKPRP,-0.0684

row,Sequence,shrunken log2 fold change
1,RRIRYRPPRLPRPRPRPHGPPRP,-0.239
2,RRIRVRPPRLPRPRPRPNIGPRP,-0.0964
3,RRIRSRPPRLPRPRPRPAQWPRP,0.595
4,RRIRDRPPRLPRPRPRPKWPPRP,0.466
5,RRIRMRPPRLPRPRPRPRARPRP,1.67
6,RRIRQRPPRLPRPRPRPKCPPRP,-0.0714
7,RRIRVRPPRLPRPRPRPTTMPRP,0.00526
8,RRIRERPPRLPRPRPRPFMLPRP,-0.511
9,RRIRSRPPRLPRPRPRPVHKPRP,-0.151
10,RRIRDRPPRLPRPRPRPFQIPRP,0.0155
11,RRIRHRPPRLPRPRPRPNHSPRP,-0.785
12,RRIRYRPPRLPRPRPRPYDYPRP,-0.145
13,RRIRERPPRLPRPRPRPMSTPRP,-0.516
14,RRIRLRPPRLPRPRPRPWICPRP,-0.213
15,RRIRKRPPRLPRPRPRPKCPPRP,0.165
16,RRIRLRPPRLPRPRPRPPGKPRP,-0.0183
17,RRIRGRPPRLPRPRPRPHYSPRP,-0.661
18,RRIRYRPPRLPRPRPRPTTPPRP,-0.437
19,RRIRHRPPRLPRPRPRPMSEPRP,0.0594
20,RRIRVRPPRLPRPRPRPPLTPRP,0.119
